Article PMC6965034 (2019)

B1: complete sortilin cytoplasmic domain (K779-E831), GST tag removed (domain or fragment)
chain: KKYVCGGRFLVHRYSVLQQHAEANGVDGVDALDTASHTNKSGYHDDSDEDLLE
B2: GST-tagged PAK1 (Y270-H545) (domain or fragment)
chain: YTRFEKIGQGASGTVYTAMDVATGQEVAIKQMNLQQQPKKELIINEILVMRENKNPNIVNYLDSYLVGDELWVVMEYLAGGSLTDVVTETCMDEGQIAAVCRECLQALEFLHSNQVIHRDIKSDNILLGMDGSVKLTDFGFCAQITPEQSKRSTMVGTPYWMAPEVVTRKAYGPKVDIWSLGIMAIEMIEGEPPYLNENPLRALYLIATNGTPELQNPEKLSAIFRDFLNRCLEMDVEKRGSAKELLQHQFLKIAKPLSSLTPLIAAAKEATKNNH

Columns and labels:
Test in all cases: ITC
[1] = biological target: B2
sortilin-cd peptide B = sortilin-cd peptide B (human)
sortilin-cd peptide C = sortilin-cd peptide C (human)
sortilin-cd peptide A = sortilin-cd peptide A (human)
sortilin-cd peptide A (human), sequence (Q13153 270-545): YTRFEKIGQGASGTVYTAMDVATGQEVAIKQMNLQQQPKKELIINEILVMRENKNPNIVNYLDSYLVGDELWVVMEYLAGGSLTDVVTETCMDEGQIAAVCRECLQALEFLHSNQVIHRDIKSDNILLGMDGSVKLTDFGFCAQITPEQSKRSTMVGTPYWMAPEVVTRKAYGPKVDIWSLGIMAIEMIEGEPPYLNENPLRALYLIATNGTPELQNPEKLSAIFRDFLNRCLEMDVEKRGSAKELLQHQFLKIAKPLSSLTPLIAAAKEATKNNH

sortilin-cd peptide C (human), sequence (Q13153 270-545): as above
sortilin-cd peptide B (human), sequence (Q13153 270-545): as above

Row | Binder | Kd [1] [µM] | Kd (sortilin-cd peptide B) [µM] | Kd (sortilin-cd peptide C) [µM] | Kd (sortilin-cd peptide A) [µM]
1 | B1 | 1.8 | – | – | –
2 | B2 | – | 12.6 | 3.6 | 14.1
